In patent US20240016931A1 (JIANGSU HENGRUI PHARMACEUTICALS, published 2024) one finds EC50 data, which are given here for 32 molecules.

Substitutions are numbered along the chain they refer to. In names and notes the source's numbering stands.

The target of this experiment is T1, His-tagged human TSLP antigen (huTSLP-his) (human).
T1 construct: Secreted from HEK293E and purified on nickel; whole entry named; also called Human TSLP-his
The experiment in a line: ELISA, coated huTSLP-his.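 Also: binding of antibodies to plate-bound TSLP read as absorbance at 450 nm after TMB colour development, EC50 derived from binding curves.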

Protocol: The plate was incubated at 4° C. overnight. After the liquid was discarded, 5% skim milk (skim milk powder from Brightdairy) blocking solution diluted with PBS was added at 200 μL/well, and the plate was incubated in an incubator at 37° C. for 2 h for blocking. After the blocking, the blocking solution was discarded, and the plate was washed 3 times with a PBST buffer (PBS containing 0.1% (v/v) tween-20, pH 7.4). […] After the incubation, the plate was washed 3 times with PBST. […] After the plate was washed 6 times with PBST, a TMB chromogenic substrate (KPL, 52-00-03) was added at 50 μL/well, and the plate was incubated at room temperature for 10-15 min. Then, 1 M H₂SO₄ was added at 50 μL/well to stop the reaction. The absorbance at 450 nm was read with a NOVOStar microplate reader, and the EC₅₀ values for the binding of the TSLP antibodies to TSLP were calculated.

B1: hu119-25 (antibody, human IgG1, kappa)
heavy: EAQLVQSGAEVKKPGSSVKVSCKASGFTFSTYNMHWVRQAPGQGLEWIGAIYPGNGETSYNQKFKDRATLTVDKSTSTAYMELSSLRSEDTAVYYCAREDDYGEGYFDVWGQGTTVTVSSASTKGPSVFPLAPSSKSTSGGTAALGCLVKDYFPEPVTVSWNSGALTSGVHTFPAVLQSSGLYSLSSVVTVPSSSLGTQTYICNVNHKPSNTKVDKKVEPKSCDKTHTCPPCPAPELLGGPSVFLFPPKPKDTLYITREPEVTCVVVDVSHEDPEVKFNWYVDGVEVHNAKTKPREEQYNSTYRVVSVLTVLHQDWLNGKEYKCKVSNKALPAPIEKTISKAKGQPREPQVYTLPPSRDELTKNQVSLTCLVKGFYPSDIAVEWESNGQPENNYKTTPPVLDSDGSFFLYSKLTVDKSRWQQGNVFSCSVMHEALHNHYTQKSLSLSPGK
light: DIVLTQSPATLSLSPGERATLSCRASESVDNSGLSFMHWYQQKPGQPPRLLLYRASNLGSGIPARFSGSGSGTDFTLTISSLEPEDFAVYYCQQINTDPLTFGQGTKLEIKRTVAAPSVFIFPPSDEQLKSGTASVVCLLNNFYPREAKVQWKVDNALQSGNSQESVTEQDSKDSTYSLSSTLTLSKADYEKHKVYACEVTHQGLSSPVTKSFNRGEC
notes: IgG1-YTE, kappa
In turn, B1 gave an EC50 of 0.357 nM.

B2: hu119-02 (antibody, human IgG1, kappa)
heavy: B1 heavy with A2V, I48M, A68V
light: DIVMTQSPDSLAVSLGERATINCRASESVDNSGLSFMHWYQQKPGQPPKLLIYRASNLGSGVPDRFSGSGSGTDFTLTISSLQAEDVAVYYCQQINTDPLTFGQGTKLEIKRTVAAPSVFIFPPSDEQLKSGTASVVCLLNNFYPREAKVQWKVDNALQSGNSQESVTEQDSKDSTYSLSSTLTLSKADYEKHKVYACEVTHQGLSSPVTKSFNRGEC
notes: IgG1-YTE, kappa
On to B2, for which a half-maximal effect (EC50) was put at 0.194 nM.

B3: hu119-26 (antibody, human IgG1, kappa)
heavy: B1 heavy with A2V, F27G, S77R
light: B1 light
notes: IgG1-YTE, kappa
For the molecule B3, a half-maximal response (EC50) required 0.378 nM.

B4: hu119-29 (antibody, human IgG1, kappa, V domains shown)
VH: EVQLVQSGAEVKKPGSSVKVSCKASGFTFSTYNMHWVKHAPGQGLEWIGAIYPGNGETSYNQKFKDRATLTVDKSTSTAYMELSSLRSEDTAVYYCAREDDYGEGYFDVWGQGTTVTVSS
VL: DIVLTQSPDSLAVSLGERATINCRASESVDQSGLSFMHWYQQKPGQPPKLLIYRASNLGSGVPDRFSGSGSGTDFTLTISSLQAEDVAVYYCQQINTDPLTFGQGTKLEIKR
notes: IgG1-YTE, kappa; also called hu119VH3 + hu119VL2-N31Q
Molecule B4 returned an EC50 of 0.273 nM.

B5: hu119-09 (antibody, human IgG1, kappa, V domains shown)
VH: B4 VH with F27G, K38R, H39Q, I48M, A68V, L70I, V72A
VL: B4 VL with L4M, Q31N, I52L, V62I
notes: IgG1-YTE, kappa
For the molecule B5, the EC50 came to 0.149 nM.

B6: hu119-01 (antibody, human IgG1, kappa)
heavy: B1 heavy with A2V, F27G, I48M, A68V, L70I, V72A
light: B2 light
notes: IgG1-YTE, kappa
In turn, B6 had an EC50 of 0.107 nM.

B7: hu119-08 (antibody, human IgG1, kappa)
heavy: B1 heavy with A2V, R38K, Q39H
light: B2 light with M4L
notes: IgG1-YTE, kappa
For the molecule B7, the EC50 was 0.202 nM.

B8: hu119-28 (antibody, human IgG1, kappa, V domains shown)
VH: B4 VH
VL: B4 VL with Q31S
notes: IgG1-YTE, kappa; also called hu119VH3 + hu119VL2-N31S
Molecule B8 registered an EC50 of 0.265 nM.

B9: hu119-12 (antibody, IgG1, V domains shown)
VH: B4 VH
VL: B4 VL with L4M, Q31N, I52L, V62I
notes: IgG1-YTE, kappa
Molecule B9 returned an EC50 of 0.203 nM.

B10: hu119-06 (antibody, human IgG1, kappa)
heavy: B1 heavy with A2V, I48M, A68V
light: B2 light with M4L
notes: IgG1-YTE, kappa
Turning to B10, a half-maximal effect (EC50) was put at 0.221 nM.

B11: hu119-10 (antibody, human IgG1, kappa, V domains shown)
VH: B4 VH with K38R, H39Q, I48M, A68V
VL: B4 VL with L4M, Q31N, I52L, V62I
notes: IgG1-YTE, kappa
On to B11, for which the EC50 was found to be 0.233 nM.

B12: hu119-05 (antibody, human IgG1, kappa)
heavy: B1 heavy with A2V, F27G, I48M, A68V, L70I, V72A
light: B2 light with M4L
notes: IgG1-YTE, kappa
In the case of B12, the EC50 was 0.144 nM.

B13: hu119-27 (antibody, human IgG1, kappa)
heavy: B1 heavy with S77R
light: B1 light
notes: IgG1-YTE, kappa
Molecule B13 gave an EC50 of 0.335 nM.

B14: hu119-04 (antibody, IgG1)
heavy: B1 heavy with A2V, R38K, Q39H
light: B2 light
notes: IgG1-YTE, kappa
B14 registered an EC50 of 0.188 nM.

B15: Ch119 (antibody, human IgG1, kappa, V domains shown)
VH: QAYLQQSGAELVRPGASVKMSCKASGFAFTTYNMHWVKHTPGQGLEWIGAIYPGNGETSYNQKFKDRATLTVDKSSRTAYMQLSSLTSEDSAVYFCAREDDYGEGYFDVWGAGTTVTVSS
VL: DIVLTQSPASLAVSLGQRATISCRASESVDNSGLSFMHWYQQKPGQPPRLLLYRASNLGSGIPARFSGSGSGTDFTLTLNPVETDDVATYYCQQINTDPLTFGAGTKLELKR
notes: murine variable regions on human IgG1-YTE / kappa; also called chimeric antibody corresponding to mab119
Consider B15, for which the EC50 turned out to be 0.851 nM.

B16: Ch3 (antibody, human IgG1, kappa, V domains shown)
VH: EVQLQQSGPVLVKPGASVKMSCKASGYTFTDDYMNWVKQSHGKSLEWIGIISPYNGGTSYNQKFKGKATLTVDKSSSTAYMELNSLTSEDSAVYYCAREDYDYDGYAMDHWGQGTSVTVSS
VL: QIVLSQSPAILSASPGEKVTMTCRASSSVSYMHWYQQKPGSSPKPWIYATSNLASGVPARFSGSGSGTSYSLTISRVEAEDAATYYCQQWSSNRTFGGGTKLEIKR
notes: murine variable regions on human IgG1-YTE / kappa; also called chimeric antibody corresponding to mab3
On to B16, for which a half-maximal response (EC50) required 0.493 nM.

B17: hu179-06 (antibody, human IgG1, kappa, V domains shown)
VH: EVQLVQSGAEVKKPGSSVKVSCKASGYTFSNYLIEWVRQAPGQGLEWIGVIDPGNGDTNYNENFKGRATLTADKSTSTAYIELSSLRSEDTAVYYCAREDNTGTAFDYWGQGTTVTVSS
VL: DIVMTQSPDSLAVSLGERATINCKASQSVSSDVTWYQQKPGQSPKLLIYYVSNHYTGVPDRFSGSGSGTDFTLTISSLQAEDVAVYYCQQHHRFPLTFGQGTKLEIKR
notes: IgG1-YTE, kappa
Molecule B17 came in with an EC50 of 0.219 nM.

B18: hu179-01 (antibody, human IgG1, kappa, V domains shown)
VH: B17 VH with Y27G, I48M, A68V, L70I, I81M
VL: B17 VL with S43P
notes: IgG1-YTE, kappa
Consider B18, for which the EC50 worked out at 0.125 nM.

B19: hu179-22 (antibody, human IgG1, kappa, V domains shown)
VH: B17 VH with Y27G, I48M, G56V, A68V, L70I, I81M
VL: B17 VL
notes: IgG1-YTE, kappa; also called hu179VH1-G56V + hu179VL2
Regarding B19, the EC50 was found to be 0.752 nM.

B20: hu179-05 (antibody, human IgG1, kappa, V domains shown)
VH: B17 VH
VL: B17 VL with S43P
notes: IgG1-YTE, kappa
As to B20, the EC50 was found to be 0.142 nM.

B21: hu179-13 (antibody, human IgG1, kappa, V domains shown)
VH: B17 VH with R38K, R67K, S85R
VL: B17 VL
notes: IgG1-YTE, kappa
As to B21, the EC50 turned out to be 0.201 nM.

B22: hu179-23 (antibody, human IgG1, kappa, V domains shown)
VH: B17 VH with Y27G, I48M, A68V, L70I, I81M
VL: B17 VL with N53D
notes: IgG1-YTE, kappa
On to B22, for which the EC50 was determined as 0.997 nM.

B23: hu179-20 (antibody, human IgG1, kappa, V domains shown)
VH: B17 VH with Y27G, I48M, N55Q, A68V, L70I, I81M
VL: B17 VL
notes: IgG1-YTE, kappa; also called hu179VH1-N55Q + hu179VL2
In turn, B23 came in with a 50% effective concentration (EC50) of 0.708 nM.

B24: hu179-21 (antibody, human IgG1, kappa, V domains shown)
VH: B17 VH with Y27G, I48M, N55V, A68V, L70I, I81M
VL: B17 VL
notes: IgG1-YTE, kappa; also called hu179VH1-N55V + hu179VL2
In the case of B24, the EC50 stood at 0.978 nM.

B25: hu179-02 (antibody, human IgG1, kappa, V domains shown)
VH: B17 VH with Y27G, I48M, A68V, L70I, I81M
VL: B17 VL
notes: IgG1-YTE, kappa
B25 had an EC50 of 0.17 nM.

B26: hu179-04 (antibody, human IgG1, kappa, V domains shown)
VH: B17 VH with I48M, A68V, I81M
VL: B17 VL
notes: IgG1-YTE, kappa
As to B26, the EC50 worked out at 0.189 nM.

B27: hu179-14 (antibody, human IgG1, kappa, V domains shown)
VH: B17 VH with T28A, I81M
VL: B17 VL with L73F
notes: IgG1-YTE, kappa
B27 returned an EC50 of 0.205 nM.

B28: hu179-15 (antibody, human IgG1, kappa, V domains shown)
VH: B17 VH with T28A, I81M
VL: B17 VL with D1S
notes: IgG1-YTE, kappa
In the case of B28, the EC50 is 0.203 nM.

B29: hu179-03 (antibody, human IgG1, kappa, V domains shown)
VH: B17 VH with I48M, A68V, I81M
VL: B17 VL with S43P
notes: IgG1-YTE, kappa
Take B29: a half-maximal effect (EC50) was put at 0.138 nM.

B30: hu179-12 (antibody, human IgG1, kappa, V domains shown)
VH: B17 VH with R38K, R67K, S85R
VL: B17 VL with S43P
notes: IgG1-YTE, kappa
B30: the EC50 came out at 0.144 nM.

B31: hu179-07 (antibody, human IgG1, kappa, V domains shown)
VH: B17 VH
VL: B17 VL with L73F
notes: IgG1-YTE, kappa
As to B31, the EC50 was 0.448 nM.

B32: Ch179 (antibody, human IgG1, kappa, V domains shown)
VH: QVQLQQSGAELVRPGTSVKVSCKASGYAFTNYLIEWVKQRPGQGLEWIGVIDPGNGDTNYNENFKGKATLTADKSSSTAYIELSRLTSEDSAVYFCAREDNTGTAFDYWGQGTTLTVSS
VL: SIVMTQTPKFLLVSAGDRVTISCKASQSVSSDVTWYQQKPGQSPKLLIYYVSNHYTGVPDRFTGSGYGTDFTFTISSVQAEDLAVYFCQQHHRFPLTFGAGTKLELKR
notes: murine variable regions on human IgG1-YTE / kappa; also called chimeric antibody corresponding to mab179
B32 had an EC50 of 0.202 nM.

Usually EC50 stands for the midpoint of the concentration-response curve.
